Data as given in PMC6681466 (Chemsuschem, 2018).
Blank lines part the entries; values can stand above or below the molecule they belong to.

Columns and labels:
Ls7β-HSDH [1] = assay: NADH consumption at […] nm, Michaelis-Menten; type: biochemical, Levilactobacillus spicheri; conditions: 0.5 mM NADH, 50 mM KPi pH 8.0, 10% methanol, 25 °C
Ls7β-HSDH [2] = assay: NADH formation at […] nm, fit with substrate inhibition; type: biochemical, Levilactobacillus spicheri; conditions: 2.0 mM NAD+, 50 mM KPi pH 8.0, 10% methanol, 25 °C
Cs7β-HSDH [3] = target: T1, Cs7β-HSDH (Clostridium sardiniense, UniProt G9FRD6); assay: NADPH formation at […] nm, fit with substrate inhibition; type: biochemical; conditions: 2.0 mM NADP+, 50 mM KPi pH 8.0, 10% methanol, 25 °C
T1 sequence (G9FRD6 1-261): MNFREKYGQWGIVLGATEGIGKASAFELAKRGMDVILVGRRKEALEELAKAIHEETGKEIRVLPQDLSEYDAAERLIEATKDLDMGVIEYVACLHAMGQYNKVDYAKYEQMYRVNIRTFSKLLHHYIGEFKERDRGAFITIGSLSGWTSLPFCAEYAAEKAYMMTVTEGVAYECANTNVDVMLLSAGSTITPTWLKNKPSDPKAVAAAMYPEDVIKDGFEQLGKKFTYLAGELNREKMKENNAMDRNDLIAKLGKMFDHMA

Ls7β-HSDH [4] = assay: NADH formation at […] nm, fit with substrate inhibition; type: biochemical, Levilactobacillus spicheri; conditions: read-out: UDCA / K m / [mmol L^-1]; 2.0 mM NAD+, 50 mM KPi pH 8.0, 10% methanol, 25 °C
Cs7β-HSDH [5] = target: T1, Cs7β-HSDH; assay: NADPH formation at […] nm, fit with substrate inhibition; type: biochemical; conditions: 1.0 mM UDCA, 50 mM KPi pH 8.0, 10% methanol, 25 °C
purified protein [6] = substrate: C[C@H](CCC(=O)O)[C@H]1CC[C@H]2[C@@H]3C(=O)C[C@@H]4C[C@H](O)CC[C@]4(C)[C@H]3C[C@H](O)[C@]12C; assay: purified protein; conditions: 0.5 mM NADPH, 50 mM KPi pH 8.0, 10% methanol, 25 °C
purified protein [7] = substrate: C[C@H](CCC(=O)O)[C@H]1CC[C@H]2[C@@H]3[C@@H](O)C[C@@H]4C[C@H](O)CC[C@]4(C)[C@H]3CC[C@]12C; assay: purified protein; conditions: 2.0 mM NADP+, 50 mM KPi pH 8.0, 10% methanol, 25 °C
purified protein [8] = substrate: [H][C@]12CC(=O)[C@@]3([H])[C@]4([H])CC[C@H]([C@H](C)CCC(=O)O)[C@@]4(C)CC[C@]3([H])[C@@]1(C)CC[C@@H](O)C2; assay: purified protein; conditions: 0.5 mM NADPH, 50 mM KPi pH 8.0, 10% methanol, 25 °C

UDCA / K i / (Cs7β-HSDH [3]): 1400 ± 300 µM
Km (Ls7β-HSDH [4]): 156 ± 51 µM
Molecule: C[C@H](CCC(=O)O)[C@H]1CC[C@H]2[C@@H]3[C@@H](O)C[C@@H]4C[C@H](O)CC[C@]4(C)[C@H]3CC[C@]12C [UDCA]
UDCA / K i / (Ls7β-HSDH [2]): 800 ± 300 µM

NADP^+ / K i / (Cs7β-HSDH [5]): 10000 ± 3000 µM
Molecule: NC(=O)c1ccc[n+]([C@@H]2O[C@H](COP(=O)(O)OP(=O)(O)OC[C@H]3O[C@@H](n4cnc5c(N)ncnc54)[C@H](OP(=O)(O)O)[C@@H]3O)[C@@H](O)[C@H]2O)c1 [NADP^+]

The remaining lines, values behind:

Molecule: C[C@H](CCC(=O)O)[C@H]1CC[C@H]2[C@@H]3C(=O)C[C@@H]4C[C@H](O)CC[C@]4(C)[C@H]3CC[C@]12C [7-oxo-LCA]
Km (Ls7β-HSDH [1]; read-out: 7-oxo-LCA / K m / [mmol L^-1]): 38 ± 14 µM

Molecule: C[C@H](CCC(=O)O)[C@H]1CC[C@H]2[C@@H]3C(=O)C[C@@H]4C[C@H](O)CC[C@]4(C)[C@H]3C[C@H](O)[C@]12C [7-oxo-DCA]
Km (Ls7β-HSDH [1]; read-out: 7-oxo-DCA / K m / [mmol L^-1]): 131 ± 28 µM

B1: Cs7β-HSDH (Clostridium sardiniense) (protein)
chain: MNFREKYGQWGIVLGATEGIGKASAFELAKRGMDVILVGRRKEALEELAKAIHEETGKEIRVLPQDLSEYDAAERLIEATKDLDMGVIEYVACLHAMGQYNKVDYAKYEQMYRVNIRTFSKLLHHYIGEFKERDRGAFITIGSLSGWTSLPFCAEYAAEKAYMMTVTEGVAYECANTNVDVMLLSAGSTITPTWLKNKPSDPKAVAAAMYPEDVIKDGFEQLGKKFTYLAGELNREKMKENNAMDRNDLIAKLGKMFDHMA
Km (purified protein [6]): 106 ± 5 µM
kcat (purified protein [6]): 2.27 ± 0.03 s⁻¹
kcat/Km (purified protein [6]): 21300 M⁻¹ s⁻¹
Km (purified protein [7]): 160 ± 30 µM
kcat (purified protein [7]): 3.61 ± 0.34 s⁻¹
kcat/Km (purified protein [7]): 22600 M⁻¹ s⁻¹
Km (purified protein [8]): 128 ± 27 µM
kcat (purified protein [8]): 1.37 s⁻¹
kcat/Km (purified protein [8]): 10700 M⁻¹ s⁻¹
